Experimental data published in paper PMC3945225, “RBPJ, the Major Transcriptional Effector of Notch Signaling, Remains Associated with Chromatin throughout Mitosis, Suggesting a Role in Mitotic Bookmarking”.

Target: Flag-RBPJ (mouse, UniProt P31266-2 1-487)
Experiment: EMSA; 1 nM DNA; 12 mM Hepes pH 7.9, 10 mM Tris-HCl pH 7.5, 60 mM KCl, 8% glycerol, 4 mM MgCl2, 0.02% NP40, 30 C; 5% PAGE 0.5x TBE
Conditions: protein: recombinant; tags: Flag; label: 32P (T4 PNK); blunt

Chain of Flag-RBPJ (P31266 other isoform, or with tags, fused parts or gaps): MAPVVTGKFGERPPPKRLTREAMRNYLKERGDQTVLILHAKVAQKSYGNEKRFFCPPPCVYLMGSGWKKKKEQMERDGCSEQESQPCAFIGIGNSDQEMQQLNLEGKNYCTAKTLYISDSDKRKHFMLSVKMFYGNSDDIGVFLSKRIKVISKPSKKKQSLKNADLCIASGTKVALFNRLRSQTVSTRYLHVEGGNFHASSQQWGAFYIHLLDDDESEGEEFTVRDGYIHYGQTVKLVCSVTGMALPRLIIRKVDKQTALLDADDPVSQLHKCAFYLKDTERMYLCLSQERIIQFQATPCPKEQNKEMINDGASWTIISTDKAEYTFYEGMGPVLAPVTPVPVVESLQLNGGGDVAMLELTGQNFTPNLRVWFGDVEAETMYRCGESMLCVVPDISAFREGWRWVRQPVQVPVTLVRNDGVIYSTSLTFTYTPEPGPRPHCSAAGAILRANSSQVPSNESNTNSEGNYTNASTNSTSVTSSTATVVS

B1: 16 bp RBPJ motif DNA (dsDNA)
DNA 1: CACTGGGAACCTACCC
DNA 2: GGGTAGGTTCCCAGTG
  binding result: binds
